For data set [1], the target named is His-Hsp70 (Heat Shock Protein 70) (UniProt P0DMV8). Description: BLI. To be noted: 25 mM HEPES, 5 mM MgCl2, 300 mM KCl, pH 7.4 (BLI) or 7.5 (SELEX), 24 °C, plate assay washes with 1% BSA.
The target is the same in data set [2]. Description: fluorescence plate binding assay. To be noted: 25 mM HEPES, 5 mM MgCl2, 300 mM KCl, pH 7.4 (BLI) or 7.5 (SELEX), 24 °C, plate assay washes with 1% BSA.
Data set [3] relates to His-CPA (C-terminus of RNA polymerase subunit PA) (Influenza A). The experiment in a line: BLI. To be noted: all A are 7-phenylbutyl-7-deaza-dA (A*); 25 mM HEPES, 5 mM MgCl2, 300 mM KCl, pH 7.4 (BLI) or 7.5 (SELEX), 24 °C; plate assay washes with 1% BSA, 0.05% Tween …; aptamers folded 95 °C 5 min then cooled.
The test system of data set [4] is His-NPA (N-terminus of RNA polymerase subunit PA) (Influenza A). The experiment in a line: BLI. The note with it: all A are 7-phenylbutyl-7-deaza-dA (A*); 25 mM HEPES, 5 mM MgCl2, 300 mM KCl, pH 7.4 (BLI) or 7.5 (SELEX), 24 °C; plate assay washes with 1% BSA, 0.05% Tween …; aptamers folded 95 °C 5 min then cooled.
Data set [5] concerns His-SUMO. Description: BLI. To be noted: all A are 7-phenylbutyl-7-deaza-dA (A*); 25 mM HEPES, 5 mM MgCl2, 300 mM KCl, pH 7.4 (BLI) or 7.5 (SELEX), 24 °C; plate assay washes with 1% BSA, 0.05% Tween …; aptamers folded 95 °C 5 min then cooled.
Data set [6] addresses SBP-Hsp70 (UniProt P0DMV8). The experiment in a line: BLI. The note with it: all A are 7-phenylbutyl-7-deaza-dA (A*); 25 mM HEPES, 5 mM MgCl2, 300 mM KCl, pH 7.4 (BLI) or 7.5 (SELEX), 24 °C; plate assay washes with 1% BSA, 0.05% Tween …; aptamers folded 95 °C 5 min then cooled.
The subject of data set [7] is His-CPA (C-terminus of RNA polymerase subunit PA) (Influenza A). The experiment in a line: fluorescence plate binding assay. The note with it: all A are 7-phenylbutyl-7-deaza-dA (A*); 25 mM HEPES, 5 mM MgCl2, 300 mM KCl, pH 7.4 (BLI) or 7.5 (SELEX), 24 °C; plate assay washes with 1% BSA, 0.05% Tween …; aptamers folded 95 °C 5 min then cooled.
Data set [8] relates to His-NPA (N-terminus of RNA polymerase subunit PA) (Influenza A). Description: fluorescence plate binding assay. The note with it: all A are 7-phenylbutyl-7-deaza-dA (A*); 25 mM HEPES, 5 mM MgCl2, 300 mM KCl, pH 7.4 (BLI) or 7.5 (SELEX), 24 °C; plate assay washes with 1% BSA, 0.05% Tween …; aptamers folded 95 °C 5 min then cooled.
For data set [9], the system named is His-SUMO. The experiment in a line: fluorescence plate binding assay. To be noted: all A are 7-phenylbutyl-7-deaza-dA (A*); 25 mM HEPES, 5 mM MgCl2, 300 mM KCl, pH 7.4 (BLI) or 7.5 (SELEX), 24 °C; plate assay washes with 1% BSA, 0.05% Tween …; aptamers folded 95 °C 5 min then cooled.
Setting [10] is: A after nt 19 are 7-phenylbutyl-7-deaza-dA (A*), 0.05% Tween 20, aptamers folded 95 °C 5 min then ….
Setting [11] is: none (natural dA), 0.05% Tween 20, aptamers folded 95 °C 5 min then ….
The mark [12] stands for this setting: all A after nt 19 are 7-phenylbutyl-7-deaza-dA (A*), 0.05% Tween 20, aptamers folded 95 °C 5 min then ….
The mark [13] stands for this setting: all A are 7-phenylbutyl-7-deaza-dA (A*), 0.05% Tween …, aptamers folded 95 °C 5 min then cooled.

In general, Kd refers to the constant that tells how readily two partners part at equilibrium. As for “GCAGCAGAGATAGACGCTATTCTCTAGACCTTCTAATTTACATACTCCAATGGCATAGCTGGCAC [HSc-2]”, the Kd turned out to be 66 nM in data set [1] (all A after nt 19 plus those marked A* are 7-phenylbutyl-7-deaza-dA, except none in 5' primer region (nt 1-19), printed A26 and later marked A*, 0.05% Tween 20, aptamers folded 95 °C 5 min then …); 245 nM in data set [2] (error printed as 6 in Table 6, all A after nt 19 plus those marked A* are 7-phenylbutyl-7-deaza-dA, except none in 5' primer region (nt 1-19), printed A26 and later marked A*, 0.05% Tween 20, aptamers folded 95 °C 5 min then …).
In the case of “GCAGCAGAGATAGACGCTATCGATGACTATAATTCCCATCTATCATCCAATGGCATAGCTGGCAC [Scr1]”, the Kd in data set [1] (setting [10]) stood at 560 nM; in data set [2] (setting [10]) it was 536 nM.
As to “GCAGCAGAGATAGACGCTATTCTCTAGACCTTCTAATTTACATACTCCAATGGCATAGCTGGCAC [HSNat-2]”, the Kd in data set [1] (setting [11]) was above 5000 nM; in data set [2] (setting [11]), above 10000 nM.
For “GCAGCAGAGATAGACGCTAAGACCTCATAGTCCTTCTAATTATACTCCAATGGCATAGCTGGCAC [HSc-9]”, the dissociation constant Kd was found to be 36 nM in data set [1] (setting [12]) and 29.1 nM in [2] (setting [12]).
“GCAGCAGAGATAGACGCTAAGACCTCATAGTCCTTCTAATTATACTCCAATGGCATAGCTGGCAC [HSNat-9]”: the Kd in data set [1] (setting [11]) is 4650 nM; in [2] (setting [11]), above 10000 nM.
As to “GCAGCAGAGATAGACGCTACCCCTTAATAAAAACATACGGTCCATTCCCGTCGTACGATTGATTG [Scr3]”, the Kd in data set [1] (setting [10]) came to 700 nM; in [2] (setting [10]), 775 nM.
For “GCAGCAGAGATAGACGCTACCCCTTAATAAAAACATACGGTCCATTCCCGTCGTACGATTGATTG [Scr2]” the same measures were 620 nM and 687 nM.
On to “AGACCTCATAGTCCTTCTAATTATACTCCAATGGCATAGCTGGCAC [HSc-9.1]”, for which the Kd in [3] was determined as 1240 nM; in data set [1] (setting [13]) it was 29.1 nM; in [4], 1550 nM; in data set [5] it was 1320 nM; in data set [6], 28.5 nM; in data set [7], 1000 nM. The dissociation constant (Kd) in [2] (setting [13]) turned out to be 14.8 nM; in [8], 1250 nM; in data set [9], 1110 nM.

The values above are taken from publication PMC10079658.
